Data: patent US20210205211A1, “PERCUTANEOUS ABSORPTION PREPARATION” (KYUSHU UNIVERSITY, NATIONAL UNIVERSITY CORPORATION, priority 2018, published 2021)
Residues, ends and D or L forms follow the SMILES beside them.

Assays:
[1] = In vitro skin permeability test of OVA versus concentration of permeation enhancing substance (Example 3); settings: S/O-S formulation 1 mg/mL OVA in IPM; enhancer solutions of 2, 10, 50 or 100 mg/mL mixed 1:1; 24 hours
[2] = no method given; cited from earlier work
[3] = In vitro skin permeability test of hydrophilic polymers in S/O-S formulation containing MGOL-70 (Example 6); settings: for Skin permeation amount of S/O-S preparation: 1 mg/mL hydrophilic polymer S/O-S formulation in IPM containing 25 mg/mL MGOL-70; for Skin permeation amount of S/O-S preparation / Skin permeation amount of PBS solution: YMP skin, 24 hours, 32° C.; for Enhancement effect: S/O-S preparation versus PBS solution; for Skin permeation amount of PBS solution: hydrophilic polymer in PBS solution
[4] = Measurement of zeta potential by electrophoretic light scattering; assay type: physicochemical; settings: 1 mg in 1 mL PBS solution, 25° C., Zetasizer Nano ZS
Description: In each 1 mL of a PBS solution was dissolved 1 mg of a part (7 kinds) of the various kinds of hydrophilic polymers shown in the above-mentioned Table 1, and a zeta potential was measured by an electrophoretic light scattering method at 25° C. using Zetasizer Nano ZS (Malvern Panalytical Ltd.).

[5] = In vitro skin permeability test of OVA S/O-S formulations with various base oils (Example 8); assay type: in vitro ADME, Yucatan micropig; settings: for Average skin permeation amount: Yucatan micropig, pig, 24 h
[6] = In vitro skin permeability test of CMAP peptide S/O-S formulations with various oily bases (Example 1); assay type: in vitro ADME, Yucatan micropig
[7] = In vitro skin permeability test of OVA with glyceryl monooleate/glyceryl monolinoleate (Example 11); assay type: in vitro ADME; settings: OVA S/O-S in IPM; HR-1 mouse skin, 4 hours
Description: Glyceryl monooleate and glyceryl monolinoleate were dissolved in IPM with the composition shown in the following Table 7 to prepare Formulation 2.
Formulation 1 and Formulation 2 were mixed with a volume ratio of 1:1, and used in the following skin permeability test.
After 4 hours, the receiver phase was recovered, and the amount of the FITC-OVA permeated through the skin was quantified by using a plate reader.

## CCCCCCCC/C=C\CCCCCCCC(=O)OCC(O)CO (stereo not drawn) [MGOL-70, glyceryl monooleate]
[1]
  tendency of the enhancing substance on percutaneous permeation of OVA: tend to enhance it

## Bovin serum albumin: Bovine serum albumin, 66.5 kDa, FITC-label
[2]
  pI: 4.7
[3]
  Skin permeation amount of S/O-S preparation: 32.1 μg/cm^2
  Enhancement effect: 8.9 fold
  Skin permeation amount of PBS solution: 3.6 μg/cm^2
[4]
  ζ potential: −16.7 mV

## Cholera toxin subunit B
[2]
  pI: 6.6
[3]
  Skin permeation amount of S/O-S preparation: 39.4 μg/cm^2
  Enhancement effect: 4.0 fold
  Skin permeation amount of PBS solution: 9.8 μg/cm^2
[4]
  ζ potential: −3.29 mV

## CC(C)CCCC(C)CCCC(C)CCCCC(C)CCCC(C)CCCC(C)C (stereo not drawn) [Squalane, squalane]
[5]
  skin permeation effect of OVA by oily base: high skin permeation effect
  Average skin permeation amount: 40.8 μg/cm^2

## CCCCCCCCCCCCCC(=O)OC(C)C [Isopropyl myristate, isopropyl myristate]
[5]
  skin permeation effect of OVA by oily base: high skin permeation effect
  Average skin permeation amount: 44.3 μg/cm^2

## CC(C)C[C@H](NC(=O)[C@H](CCC(=O)O)NC(=O)[C@H](CCC(=O)O)NC(=O)[C@@H](NC(=O)[C@H](Cc1ccc(O)cc1)NC(=O)[C@@H](NC(=O)[C@H](CCCNC(=N)N)NC(=O)[C@H](CC(C)C)NC(=O)[C@@H]1CCCN1C(=O)[C@H](C)NC(=O)[C@H](CO)NC(=O)[C@H](CCC(N)=O)NC(=O)[C@H](C)NC(=O)[C@H](CC(=O)O)NC(=O)[C@H](CC(C)C)NC(=O)[C@@H](N)CC(C)C)C(C)C)C(C)C)C(=O)N[C@@H](CCCCN)C(=O)N1CCC[C@H]1C(=O)O [Peptide (CMAP, from Beta-lactoglobulin)] (H-LLDAQSAPLRVYVEELKP-OH; N-terminus and C-terminus assumed)
[3]
  Skin permeation amount of S/O-S preparation: 11.1 μg/cm^2
  Enhancement effect: 15 fold
  Skin permeation amount of PBS solution: 1.30 μg/cm^2

## Lysozyme: Lysozyme, 14.3 kDa, FITC-label
[2]
  pI: 11
[3]
  Skin permeation amount of S/O-S preparation: 6.0 μg/cm^2
  Enhancement effect: 1.5 fold
  Skin permeation amount of PBS solution: 4.0 μg/cm^2
[4]
  ζ potential: 8.84 mV

## CCCCCCCC/C=C\CCCCCCCC(=O)O [oleic acid]
[6]
  enhancing effect of percutaneous permeation (amount of skin permeation of the CMAP peptide): high enhancing effect of percutaneous permeation

## Green fluorescent protein
[2]
  pI: 6.1
[3]
  Skin permeation amount of S/O-S preparation: 35.0 μg/cm^2
  Enhancement effect: 8.4 fold
  Skin permeation amount of PBS solution: 4.2 μg/cm^2
[3]; quantified by own fluorescence (GFP) or peroxidase activity (HRP) in skin extract
  state of the protein permeated into the skin: could be permeated into the skin without being denatured
[4]
  ζ potential: −9.52 mV

## CCCCC/C=C\C/C=C\CCCCCCCC(=O)OCC(O)CO (stereo not drawn) [glyceryl monolinoleate]
[7]
  skin permeation amount of the drug with increase in the addition ratio: the skin permeation amount of the drug was increased

B1: Ovalubumin: Ovalbumin (OVA), 45 kDa, labeled with FITC; model hydrophilic drug (protein, UniProt P01012 2-386, looked up)
Ovalbumin: GSIGAASMEFCFDVFKELKVHHANENIFYCPIAIMSALAMVYLGAKDSTRTQINKVVRFDKLPGFGDSIEAQCGTSVNVHSSLRDILNQITKPNDVYSFSLASRLYAEERYPILPEYLQCVKELYRGGLEPINFQTAADQARELINSWVESQTNGIIRNVLQPSSVDSQTAMVLVNAIVFKGLWEKAFKDEDTQAMPFRVTEQESKPVQMMYQIGLFRVASMASEKMKILELPFASGTMSMLVLLPDEVSGLEQLESIINFEKLTEWTSSNVMEERKIKVYLPRMKMEEKYNLTSVLMAMGITDVFSSSANLSGISSAESLKISQAVHAAHAEINEAGREVVGSAEAGVDAASVSEEFRADHPFLFCIKHIATNAVLFFGRCVSP
modifications: FITC
notes: Ovalbumin (OVA), 45 kDa, labeled with FITC; model hydrophilic drug
[2]
  pI: 4.9
[3]
  Skin permeation amount of S/O-S preparation: 12.5 μg/cm^2
  Enhancement effect: 30 fold
  Skin permeation amount of PBS solution: 0.41 μg/cm^2
[4]
  ζ potential: −12.80 mV
